Reference: publication PMC11784390, “Conformational changes in and translocation of small proteins: insights into the ejection mechanism of podophages” (Journal of Virology, 2024)

T1: core protein gp16 (bacteriophage T7), P03726
T1 chain: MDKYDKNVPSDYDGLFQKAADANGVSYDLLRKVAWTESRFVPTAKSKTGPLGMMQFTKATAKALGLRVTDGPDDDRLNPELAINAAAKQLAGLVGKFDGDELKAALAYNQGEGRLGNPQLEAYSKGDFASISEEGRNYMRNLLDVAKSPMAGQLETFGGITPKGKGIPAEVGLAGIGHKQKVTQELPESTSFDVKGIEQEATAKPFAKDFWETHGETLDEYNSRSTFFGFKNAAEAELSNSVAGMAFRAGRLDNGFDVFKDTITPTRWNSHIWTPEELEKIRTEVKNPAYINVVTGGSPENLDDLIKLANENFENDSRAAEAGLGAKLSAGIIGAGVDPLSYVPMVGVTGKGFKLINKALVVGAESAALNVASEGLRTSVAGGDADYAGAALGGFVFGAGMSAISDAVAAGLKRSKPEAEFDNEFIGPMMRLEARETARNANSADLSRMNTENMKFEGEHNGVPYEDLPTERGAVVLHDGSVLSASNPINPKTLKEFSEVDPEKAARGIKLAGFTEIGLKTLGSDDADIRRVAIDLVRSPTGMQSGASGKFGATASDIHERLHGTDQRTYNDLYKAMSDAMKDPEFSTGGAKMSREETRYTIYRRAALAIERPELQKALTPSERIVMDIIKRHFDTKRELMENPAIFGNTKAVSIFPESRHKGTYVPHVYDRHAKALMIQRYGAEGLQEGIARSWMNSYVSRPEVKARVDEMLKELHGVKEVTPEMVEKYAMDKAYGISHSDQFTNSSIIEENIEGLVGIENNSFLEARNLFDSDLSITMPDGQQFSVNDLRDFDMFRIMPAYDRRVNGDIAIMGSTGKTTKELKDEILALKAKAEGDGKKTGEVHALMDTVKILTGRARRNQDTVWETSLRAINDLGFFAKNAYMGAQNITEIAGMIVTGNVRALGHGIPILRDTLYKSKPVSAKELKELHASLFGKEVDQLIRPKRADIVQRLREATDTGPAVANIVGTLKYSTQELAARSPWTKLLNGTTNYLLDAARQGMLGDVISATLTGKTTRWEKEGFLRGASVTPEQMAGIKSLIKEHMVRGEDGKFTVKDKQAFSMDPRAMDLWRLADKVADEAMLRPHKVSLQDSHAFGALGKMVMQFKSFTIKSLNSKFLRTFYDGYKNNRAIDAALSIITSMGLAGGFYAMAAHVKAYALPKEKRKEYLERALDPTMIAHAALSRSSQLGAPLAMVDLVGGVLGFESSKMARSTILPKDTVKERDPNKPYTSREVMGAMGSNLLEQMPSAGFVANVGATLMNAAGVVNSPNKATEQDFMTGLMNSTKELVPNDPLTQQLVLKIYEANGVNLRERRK

T2: nozzle protein gp12 (bacteriophage T7, UniProt P03747 1-794)
T2 construct: nozzle protein gp12 of bacteriophage T7, as it stands in the virion; Native virion protein; also called tail nozzle; source: T7 virions propagated in E. coli, purified (PEG precipitation, CsCl ultracentrifugation)
T2 sequence (looked up): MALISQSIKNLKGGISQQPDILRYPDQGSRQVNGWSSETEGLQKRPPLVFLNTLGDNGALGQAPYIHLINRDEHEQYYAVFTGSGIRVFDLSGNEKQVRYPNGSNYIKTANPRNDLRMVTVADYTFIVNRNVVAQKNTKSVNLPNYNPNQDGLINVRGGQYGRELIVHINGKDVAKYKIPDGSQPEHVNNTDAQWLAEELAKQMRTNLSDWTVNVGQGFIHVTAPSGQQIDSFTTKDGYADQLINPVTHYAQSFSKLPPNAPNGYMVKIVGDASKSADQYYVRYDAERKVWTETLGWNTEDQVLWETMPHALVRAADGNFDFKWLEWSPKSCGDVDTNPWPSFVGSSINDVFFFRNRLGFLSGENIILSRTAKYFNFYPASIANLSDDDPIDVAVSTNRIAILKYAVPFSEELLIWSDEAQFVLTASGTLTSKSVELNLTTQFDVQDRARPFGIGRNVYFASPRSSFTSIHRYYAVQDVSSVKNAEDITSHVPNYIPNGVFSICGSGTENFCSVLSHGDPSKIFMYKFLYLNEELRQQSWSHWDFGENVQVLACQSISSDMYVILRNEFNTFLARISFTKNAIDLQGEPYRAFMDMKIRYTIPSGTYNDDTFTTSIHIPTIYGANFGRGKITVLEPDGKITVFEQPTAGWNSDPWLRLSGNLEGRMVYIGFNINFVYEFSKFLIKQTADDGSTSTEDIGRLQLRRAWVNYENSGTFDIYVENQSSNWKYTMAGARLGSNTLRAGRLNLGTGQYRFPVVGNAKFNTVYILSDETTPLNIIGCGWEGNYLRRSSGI

T3: portal protein gp8 (bacteriophage T7, UniProt P03728 1-536)
T3 construct: portal protein gp8 of bacteriophage T7, as it stands in the virion; Native virion protein; also called dodecameric portal; source: T7 virions propagated in E. coli, purified (PEG precipitation, CsCl ultracentrifugation); copies: 12
T3 sequence (looked up): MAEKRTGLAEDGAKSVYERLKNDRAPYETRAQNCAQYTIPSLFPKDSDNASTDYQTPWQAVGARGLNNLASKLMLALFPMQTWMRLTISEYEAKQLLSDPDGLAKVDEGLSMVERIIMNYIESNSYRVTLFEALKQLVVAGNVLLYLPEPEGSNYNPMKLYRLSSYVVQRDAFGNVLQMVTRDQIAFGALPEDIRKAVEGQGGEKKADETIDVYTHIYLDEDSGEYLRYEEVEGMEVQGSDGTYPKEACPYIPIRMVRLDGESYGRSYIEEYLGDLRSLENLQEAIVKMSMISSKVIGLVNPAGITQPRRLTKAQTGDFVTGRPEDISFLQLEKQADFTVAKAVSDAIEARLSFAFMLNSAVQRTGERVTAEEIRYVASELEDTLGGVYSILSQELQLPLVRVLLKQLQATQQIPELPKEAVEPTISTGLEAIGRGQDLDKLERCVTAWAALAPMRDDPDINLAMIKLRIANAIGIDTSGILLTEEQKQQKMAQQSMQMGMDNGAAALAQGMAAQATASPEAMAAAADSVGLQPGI

T4: core protein gp14 (bacteriophage T7, UniProt P03724 1-196)
T4 construct: core protein gp14 of bacteriophage T7, 196 residues as printed; modelled residues 4-86 and 101-129 in mature T7, 25-143 in DNA-ejected T7; Eight copies resolved in the mature virion, six copies in the extended channel of DNA-ejected T7; source: T7 virions propagated in E. coli, purified (PEG precipitation, CsCl ultracentrifugation)
T4 sequence (looked up): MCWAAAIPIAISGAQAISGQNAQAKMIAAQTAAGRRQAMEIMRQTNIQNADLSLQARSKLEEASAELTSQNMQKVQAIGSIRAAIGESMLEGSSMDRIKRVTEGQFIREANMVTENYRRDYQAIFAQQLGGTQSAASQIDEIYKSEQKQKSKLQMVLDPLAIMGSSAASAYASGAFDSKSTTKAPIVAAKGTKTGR

T5: core protein gp15 (bacteriophage T7, UniProt P03725 1-747)
T5 construct: core protein gp15 of bacteriophage T7, as it stands in the mature virion; Eight-fold ring in the core of mature T7; source: T7 virions propagated in E. coli, purified (PEG precipitation, CsCl ultracentrifugation)
T5 sequence (looked up): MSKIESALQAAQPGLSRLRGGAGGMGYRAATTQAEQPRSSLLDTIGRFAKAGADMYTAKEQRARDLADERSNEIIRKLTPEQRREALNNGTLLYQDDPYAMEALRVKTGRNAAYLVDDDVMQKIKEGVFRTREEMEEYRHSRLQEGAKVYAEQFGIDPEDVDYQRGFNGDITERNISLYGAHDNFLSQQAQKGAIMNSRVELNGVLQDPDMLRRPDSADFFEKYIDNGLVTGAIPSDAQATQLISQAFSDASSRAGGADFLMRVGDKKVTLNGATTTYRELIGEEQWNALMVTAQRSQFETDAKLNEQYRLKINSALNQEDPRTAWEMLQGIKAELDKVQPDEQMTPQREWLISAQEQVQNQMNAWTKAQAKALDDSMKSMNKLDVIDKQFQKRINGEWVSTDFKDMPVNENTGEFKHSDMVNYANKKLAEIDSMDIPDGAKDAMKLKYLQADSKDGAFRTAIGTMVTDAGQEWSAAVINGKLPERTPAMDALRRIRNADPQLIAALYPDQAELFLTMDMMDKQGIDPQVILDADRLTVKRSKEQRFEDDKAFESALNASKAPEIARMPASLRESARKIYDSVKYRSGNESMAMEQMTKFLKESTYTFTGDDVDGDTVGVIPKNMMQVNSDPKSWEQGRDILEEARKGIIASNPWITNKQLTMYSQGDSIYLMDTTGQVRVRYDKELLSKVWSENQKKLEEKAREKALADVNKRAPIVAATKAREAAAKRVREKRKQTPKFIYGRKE

B1: core protein gp16, P03726 1-1318 (natural protein)
chain: MDKYDKNVPSDYDGLFQKAADANGVSYDLLRKVAWTESRFVPTAKSKTGPLGMMQFTKATAKALGLRVTDGPDDDRLNPELAINAAAKQLAGLVGKFDGDELKAALAYNQGEGRLGNPQLEAYSKGDFASISEEGRNYMRNLLDVAKSPMAGQLETFGGITPKGKGIPAEVGLAGIGHKQKVTQELPESTSFDVKGIEQEATAKPFAKDFWETHGETLDEYNSRSTFFGFKNAAEAELSNSVAGMAFRAGRLDNGFDVFKDTITPTRWNSHIWTPEELEKIRTEVKNPAYINVVTGGSPENLDDLIKLANENFENDSRAAEAGLGAKLSAGIIGAGVDPLSYVPMVGVTGKGFKLINKALVVGAESAALNVASEGLRTSVAGGDADYAGAALGGFVFGAGMSAISDAVAAGLKRSKPEAEFDNEFIGPMMRLEARETARNANSADLSRMNTENMKFEGEHNGVPYEDLPTERGAVVLHDGSVLSASNPINPKTLKEFSEVDPEKAARGIKLAGFTEIGLKTLGSDDADIRRVAIDLVRSPTGMQSGASGKFGATASDIHERLHGTDQRTYNDLYKAMSDAMKDPEFSTGGAKMSREETRYTIYRRAALAIERPELQKALTPSERIVMDIIKRHFDTKRELMENPAIFGNTKAVSIFPESRHKGTYVPHVYDRHAKALMIQRYGAEGLQEGIARSWMNSYVSRPEVKARVDEMLKELHGVKEVTPEMVEKYAMDKAYGISHSDQFTNSSIIEENIEGLVGIENNSFLEARNLFDSDLSITMPDGQQFSVNDLRDFDMFRIMPAYDRRVNGDIAIMGSTGKTTKELKDEILALKAKAEGDGKKTGEVHALMDTVKILTGRARRNQDTVWETSLRAINDLGFFAKNAYMGAQNITEIAGMIVTGNVRALGHGIPILRDTLYKSKPVSAKELKELHASLFGKEVDQLIRPKRADIVQRLREATDTGPAVANIVGTLKYSTQELAARSPWTKLLNGTTNYLLDAARQGMLGDVISATLTGKTTRWEKEGFLRGASVTPEQMAGIKSLIKEHMVRGEDGKFTVKDKQAFSMDPRAMDLWRLADKVADEAMLRPHKVSLQDSHAFGALGKMVMQFKSFTIKSLNSKFLRTFYDGYKNNRAIDAALSIITSMGLAGGFYAMAAHVKAYALPKEKRKEYLERALDPTMIAHAALSRSSQLGAPLAMVDLVGGVLGFESSKMARSTILPKDTVKERDPNKPYTSREVMGAMGSNLLEQMPSAGFVANVGATLMNAAGVVNSPNKATEQDFMTGLMNSTKELVPNDPLTQQLVLKIYEANGVNLRERRK
B2: small protein gp6.7 (natural protein, bacteriophage T7, UniProt P03801 1-88, looked up)
chain: MCFSPKIKTPKMDTNQIRAVEPAPLTQEVSSVEFGGSSDETDTEGTEVSGRKGLKVERDDSVAKSKASGNGSARMKSSIRKSAFGGKK
notes: gp6.7 of bacteriophage T7, 88 residues as printed; modelled loop I (2-15) and loop II (34-50) in mature T7, conformer A 11-41 and conformer B 11-59 in DNA-ejected T7; Twelve copies in the mature virion and in the extended channel of DNA-ejected T7; also called core protein gp6.7; source: T7 virions propagated in E. coli, purified (PEG precipitation, CsCl ultracentrifugation)

Key:
[1] = target: T1, core protein gp16 (bacteriophage T7), …; assay: cryo-EM structure; mature T7 virions, in situ; entire particle asymmetric 6.1 Å; local reconstructions of core complex 3 Å (four-fold), portal 2.5 Å (twelve-fold), portal–tail complex 2.7 Å (six-fold); conditions: remark: other sources report otherwise
nozzle protein gp12 = target: T2, nozzle protein gp12; assay: cryo-EM structure; DNA-ejected T7: purified mature T7 incubated with rough LPS (250 µg/mL) at 37°C for 3 h; entire particle asymmetric 8.2 Å; portal–tail complex 3.5 Å (six-fold); conditions: both partners purified
portal protein gp8 = target: T3, portal protein gp8; assay: cryo-EM structure; mature T7 virions, in situ; entire particle asymmetric 6.1 Å; local reconstructions of core complex 3 Å (four-fold), portal 2.5 Å (twelve-fold), portal–tail complex 2.7 Å (six-fold); conditions: both partners purified
core protein gp14 = target: T4, core protein gp14; assay: as above; conditions: both partners purified
core protein gp15 = target: T5, core protein gp15; assay: as above; conditions: both partners purified

| Binder | stoichiometry N [1] | binding result (nozzle protein gp12) | binding result (portal protein gp8) | binding result (core protein gp14) | binding result (core protein gp15) |
| --- | --- | --- | --- | --- | --- |
| B1 | 4 |  |  |  |  |
| B2 |  | binds | binds | binds | binds |
